Data from IntAct's records for PubMed 24270572.

B1: Endoribonuclease ZC3H12A (Homo sapiens), Q5D1E8 (parent)
chain: MSGPCGEKPVLEASPTMSLWEFEDSHSRQGTPRPGQELAAEEASALELQMKVDFFRKLGYSSTEIHSVLQKLGVQADTNTVLGELVKHGTATERERQTSPDPCPQLPLVPRGGGTPKAPNLEPPLPEEEKEGSDLRPVVIDGSNVAMSHGNKEVFSCRGILLAVNWFLERGHTDITVFVPSWRKEQPRPDVPITDQHILRELEKKKILVFTPSRRVGGKRVVCYDDRFIVKLAYESDGIVVSNDTYRDLQGERQEWKRFIEERLLMYSFVNDKFMPPDDPLGRHGPSLDNFLRKKPLTLEHRKQPCPYGRKCTYGIKCRFFHPERPSCPQRSVADELRANALLSPPRAPSKDKNGRRPSPSSQSSSLLTESEQCSLDGKKLGAQASPGSRQEGLTQTYAPSGRSLAPSGGSGSSFGPTDWLPQTLDSLPYVSQDCLDSGIGSLESQMSELWGVRGGGPGEPGPPRAPYTGYSPYGSELPATAAFSAFGRAMGAGHFSVPADYPPAPPAFPPREYWSEPYPLPPPTSVLQEPPVQSPGAGRSPWGRAGSLAKEQASVYTKLCGVFPPHLVEAVMGRFPQLLDPQQLAAEILSYKSQHPSE

Variants of: B1
Conditions: with ubp10_human USP10, Q14694
Chain of ubp10_human USP10, Q14694 (Q14694 whole entry): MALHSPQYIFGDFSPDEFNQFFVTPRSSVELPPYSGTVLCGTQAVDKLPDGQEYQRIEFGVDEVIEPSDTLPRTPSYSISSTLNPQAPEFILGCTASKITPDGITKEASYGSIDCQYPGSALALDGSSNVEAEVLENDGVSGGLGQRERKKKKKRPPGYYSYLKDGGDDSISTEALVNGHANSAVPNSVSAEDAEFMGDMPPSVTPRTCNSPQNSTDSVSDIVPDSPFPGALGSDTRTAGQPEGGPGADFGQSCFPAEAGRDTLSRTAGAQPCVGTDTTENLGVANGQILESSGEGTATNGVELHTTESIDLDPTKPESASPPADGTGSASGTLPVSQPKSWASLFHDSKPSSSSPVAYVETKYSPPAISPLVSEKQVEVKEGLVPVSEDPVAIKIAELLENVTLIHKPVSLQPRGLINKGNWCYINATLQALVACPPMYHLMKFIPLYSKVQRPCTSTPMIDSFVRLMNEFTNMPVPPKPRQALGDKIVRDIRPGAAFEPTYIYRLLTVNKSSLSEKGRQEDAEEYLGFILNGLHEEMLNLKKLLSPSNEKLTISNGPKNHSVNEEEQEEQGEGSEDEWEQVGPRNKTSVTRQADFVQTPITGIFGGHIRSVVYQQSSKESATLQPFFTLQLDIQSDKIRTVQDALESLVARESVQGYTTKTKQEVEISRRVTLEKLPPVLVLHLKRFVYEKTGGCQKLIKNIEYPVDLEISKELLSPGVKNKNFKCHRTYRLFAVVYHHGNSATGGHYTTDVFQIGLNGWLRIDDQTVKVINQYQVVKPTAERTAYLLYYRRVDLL

Variant | effect of a mutation on the interaction
MSGPCGEKPVLEASPTMSLWEFEDSHSRQGTPRPGQELAAEEASALELQMKVDFFRKLGYSSTEIHSVLQKLGVQADTNTVLGELVKHGTATERERQTSPDPCPQLPLVPRGGGTPKAPNLEPPLPEEEKEGSDLRPVVINGSNVAMSHGNKEVFSCRGILLAVNWFLERGHTDITVFVPSWRKEQPRPDVPITDQHILRELEKKKILVFTPSRRVGGKRVVCYDDRFIVKLAYESDGIVVSNDTYRDLQGERQEWKRFIEERLLMYSFVNDKFMPPDDPLGRHGPSLDNFLRKKPLTLEHRKQPCPYGRKCTYGIKCRFFHPERPSCPQRSVADELRANALLSPPRAPSKDKNGRRPSPSSQSSSLLTESEQCSLDGKKLGAQASPGSRQEGLTQTYAPSGRSLAPSGGSGSSFGPTDWLPQTLDSLPYVSQDCLDSGIGSLESQMSELWGVRGGGPGEPGPPRAPYTGYSPYGSELPATAAFSAFGRAMGAGHFSVPADYPPAPPAFPPREYWSEPYPLPPPTSVLQEPPVQSPGAGRSPWGRAGSLAKEQASVYTKLCGVFPPHLVEAVMGRFPQLLDPQQLAAEILSYKSQHPSE [D141N] | disrupting interaction

Variants of: B1
Conditions: with ubp10_human USP10, Q14694
Remark: another data set of the same source

Variant | effect of a mutation on the interaction
MSGPCGEKPVLEASPTMSLWEFEDSHSRQGTPRPGQELAAEEASALELQMKVDFFRKLGYSSTEIHSVLQKLGVQADTNTVLGELVKHGTATERERQTSPDPCPQLPLVPRGGGTPKAPNLEPPLPEEEKEGSDLRPVVIDGSNVAMSHGNKEVFSCRGILLAVNWFLERGHTDITVFVPSWRKEQPRPDVPITDQHILRELEKKKILVFTPSRRVGGKRVVCYDDRFIVKLAYESDGIVVSNDTYRDLQGERQEWKRFIEERLLMYSFVNDKFMPPDDPLGRHGPSLDNFLRKKPLTLEHRKQPRPYGRKCTYGIKCRFFHPERPSCPQRSVADELRANALLSPPRAPSKDKNGRRPSPSSQSSSLLTESEQCSLDGKKLGAQASPGSRQEGLTQTYAPSGRSLAPSGGSGSSFGPTDWLPQTLDSLPYVSQDCLDSGIGSLESQMSELWGVRGGGPGEPGPPRAPYTGYSPYGSELPATAAFSAFGRAMGAGHFSVPADYPPAPPAFPPREYWSEPYPLPPPTSVLQEPPVQSPGAGRSPWGRAGSLAKEQASVYTKLCGVFPPHLVEAVMGRFPQLLDPQQLAAEILSYKSQHPSE [C306R] | disrupting interaction
